The source of these data is patent US20200206371A1 (WAYNE STATE UNIVERSITY, published 2020).

Assay [1] addresses T1, murine IFN-γ (recombinant IFN-γ) (mouse, UniProt P01580 23-155).
T1 construct: AN-18 is described as a rat mAb to murine IFN-γ; also called rIFN-γ; interferon gamma
T1 sequence (looked up): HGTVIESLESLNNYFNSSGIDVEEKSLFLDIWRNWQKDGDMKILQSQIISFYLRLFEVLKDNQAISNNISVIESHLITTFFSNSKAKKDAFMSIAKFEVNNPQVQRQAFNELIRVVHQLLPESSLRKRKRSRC
In words: Octet (BLI); format not stated; diabody (scFv homodimer), not full-length antibody.

In assay [2] the target is T1, murine IFN-γ (recombinant IFN-γ). In words: Octet (BLI); format not stated; full-length AN18, not diabody.

“anti-IFN-γ diabody (homodimer of the single chain Fv derived from anti-IFNγ clone AN18, made in CHO cells)”: in assay [1], the Kd came out at 37.9 nM.

B1: AN-18 (anti-IFNγ, rat IgG1, kappa, eBioscience), full-length (antibody, V domains shown)
VH: QVQLKESGPGLVQPSQTLSLTCTVSGFSLDSYNVHWVRQPPGKGLEWMGRMKYNGDTSYNSALKSRLRISRDTSKNQVFLKMNSLQTDDTGTYYCTRDWHYGYPSPYFEFWGQGVMVTVSS
VL: DVQMTQSPSYLAASPGESVSISCKASKNINTYLAWYQEKPGKTNKLLIYSGSTLQSGTPSRFSGSGSGTDFTLTIRSLEPEDFAVYYCQQHNEYPLTFGSGTKLEVKR
notes: Bought rat IgG1, kappa monoclonal antibody; also called full-length AN18; anti-mouse IFN-γ mAb clone AN-18
On to B1, for which the Kd in assay [2] turned out to be 28.2 nM.
